Entries after “also recorded” stand apart in the source; their conditions may differ.
B1: V9I C68R G138D F86Y A209T: rtTA variant with these amino acid substitutions (protein)
chain: MSRLDKSKIINSALELLNGVGIEGLTTRKLAQKLGVEQPTLYWHVKNKRALLDALPIEMLDRHHTHFRPLEGESWQDFLRNNAKSYRCALLSHRDGAKVHLGTRPTEKQYETLENQLAFLCQQGFSLENALYALSAVDHFTLGCVLEEQEHQVAKEERETPTTDSMPPLLRQAIELFDRQGAEPAFLFGLELIICGLEKQLKCESGGPTDALDDFDLDMLPADALDDFDLDMLPADALDDFDLDMLPG
B2: V9I G19M G138D F86Y A209T: rtTA variant with these amino acid substitutions (protein)
chain: MSRLDKSKIINSALELLNMVGIEGLTTRKLAQKLGVEQPTLYWHVKNKRALLDALPIEMLDRHHTHFCPLEGESWQDFLRNNAKSYRCALLSHRDGAKVHLGTRPTEKQYETLENQLAFLCQQGFSLENALYALSAVDHFTLGCVLEEQEHQVAKEERETPTTDSMPPLLRQAIELFDRQGAEPAFLFGLELIICGLEKQLKCESGGPTDALDDFDLDMLPADALDDFDLDMLPADALDDFDLDMLPG
B3: V9I E37Q G138D F86Y A209T: rtTA variant with these amino acid substitutions (protein)
chain: MSRLDKSKIINSALELLNGVGIEGLTTRKLAQKLGVQQPTLYWHVKNKRALLDALPIEMLDRHHTHFCPLEGESWQDFLRNNAKSYRCALLSHRDGAKVHLGTRPTEKQYETLENQLAFLCQQGFSLENALYALSAVDHFTLGCVLEEQEHQVAKEERETPTTDSMPPLLRQAIELFDRQGAEPAFLFGLELIICGLEKQLKCESGGPTDALDDFDLDMLPADALDDFDLDMLPADALDDFDLDMLPG
B4: V9I E37Q G138D F86Y: rtTA variant with these amino acid substitutions (protein)
chain: MSRLDKSKIINSALELLNGVGIEGLTTRKLAQKLGVQQPTLYWHVKNKRALLDALPIEMLDRHHTHFCPLEGESWQDFLRNNAKSYRCALLSHRDGAKVHLGTRPTEKQYETLENQLAFLCQQGFSLENALYALSAVDHFTLGCVLEEQEHQVAKEERETPTTDSMPPLLRQAIELFDRQGAEPAFLFGLELIICGLEKQLKCESGGPADALDDFDLDMLPADALDDFDLDMLPADALDDFDLDMLPG
B5: V9I G19M G138D F86Y: rtTA variant with these amino acid substitutions (protein)
chain: MSRLDKSKIINSALELLNMVGIEGLTTRKLAQKLGVEQPTLYWHVKNKRALLDALPIEMLDRHHTHFCPLEGESWQDFLRNNAKSYRCALLSHRDGAKVHLGTRPTEKQYETLENQLAFLCQQGFSLENALYALSAVDHFTLGCVLEEQEHQVAKEERETPTTDSMPPLLRQAIELFDRQGAEPAFLFGLELIICGLEKQLKCESGGPADALDDFDLDMLPADALDDFDLDMLPADALDDFDLDMLPG

Tested on: chromosomally integrated CMV-7tetO luciferase reporter in HeLa X1/6 cells
Test: rtTA activity assay, HeLa X1/6 cells with integrated CMV-7tetO luciferase reporter (Example 1, FIG. 2-3, 5, 14, 15)
Assay type: cell-based
Conditions: for rtTA activation by minocycline (Mc): 0-10000 ng/ml Mc; for rtTA activation by tetracycline (Tc): 0-10000 ng/ml Tc; for basal / background activity in the absence of inducer: no dox or other effector
Text: To test whether this rtTA optimization reflects a specific adaptation to the viral LTR-2ΔtetO promoter, we assayed rtTA activity with a reporter gene construct in which luciferase expression is under the control of a minimal CMV promoter coupled to an array of seven tetO elements. […] Thus, the observed mutations in rtTA are not virus-specific adaptations, but are general improvements of the Tet-on system. We also assayed rtTA activity in HeLa X1/6 cells that contain chromosomally integrated copies of the CMV-7tetO luciferase reporter construct (FIG. 2C). In these cells, the evolved rtTAs show a similar pattern of activity as with episomal reporter gene constructs in C33A cells. Thus, these mutations improve rtTA activity independent of the type of promoter and the episomal or chromosomal status of the target gene.
The V10 variant needs only 44 ng/ml dox to reach this activity level, which reflects a 23-fold higher dox-sensitivity than the wild-type rtTA.
rtTA activity assay. Two firefly luciferase reporter constructs with different promoter configurations were used. pLTR-2ΔtetO-luc contains the LTR-2ΔtetO promoter derived from the HIV-rtTA molecular clone (Marzio et al. 2001; Marzio et al. 2002). pCMV-7tetO-luc, previously named pUHC13-3 (Gossen et al. 1992), contains seven tetO elements located upstream of a minimal CMV promoter. The plasmid pRL-CMV (PROMEGA®, Madison, Wis., USA), in which the expression of Renilla luciferase is controlled by the CMV promoter, was used as an internal control to allow correction for differences in transfection efficiency.
C33A and HeLa X1/6 cells were grown in 2-cm^2 wells to 60% confluency and transfected by the calcium phosphate precipitation method (Das et al. 1999). C33A cells were transfected with 0.4 ng pCMV-rtTA (wild-type or mutant), 20 ng pLTR-2ΔtetO-luc or pCMV-7tetO-luc, 0.5 ng pRL-CMV, and 980 ng pBluescript as carrier DNA. HeLa X1/6 cells were transfected with 8 ng pCMV-rtTA, 2.5 ng pRL-CMV, and 990 ng pBluescript. The amount of the DNA constructs was optimized for each cell type to keep rtTA-mediated transactivation within the linear range and to avoid squelching of transcription factors. Cells were cultured for 48 hours in the presence of different concentrations of dox, Tc or Mc, and lysed in Passive Lysis Buffer (PROMEGA®). Firefly and Renilla luciferase activities were determined with the dual-luciferase reporter assay (PROMEGA®). The activity of the rtTA variants was calculated as the ratio of the firefly and Renilla luciferase activities, and corrected for between-session variation.
FIG. 2. Novel rtTA variants show increased activity and dox-sensitivity in different Tet systems. The transcriptional activity of rtTA variants was measured in C33A cells transfected with a plasmid carrying the firefly luciferase reporter gene under the control of the viral LTR-2ΔtetO promoter (LTR-2ΔtetO; A) or under the control of a minimal CMV-derived promoter coupled to seven tetO elements (CMV7-tetO; B). Furthermore, rtTA activity was measured in HeLa X1/6 cells (Baron et al. 1997) that contain a chromosomally integrated copy of the CMV-7tetO reporter construct (CMV7tetO-integrated; C, D). Variants V1 to V10 were compared in all three Tet systems (panels A-C) and variants V11 to V18 in the cells with the integrated reporter (panel D). Cells were transfected with the indicated rtTA expression plasmid or pBluescript as a negative control, and a plasmid constitutively expressing Renilla luciferase to correct for differences in transfection efficiency. Cells were cultured in the presence of different dox concentrations (0-1000 ng/ml). The ratio of the firefly and Renilla luciferase activities measured 2 days after transfection reflects the rtTA activity. All values were related to the wild-type (wt) rtTA activity at 1000 ng/ml dox, which was arbitrarily set at 100%. In (C and D), average values of three transfections are shown with error bars indicating the standard deviation.
FIG. 3. […]

[1] = listed as C68R V9I G138D F86Y A209T

Molecule	rtTA activation by minocycline (Mc) [1]	rtTA activation by tetracycline (Tc) [1]	basal / background activity in the absence of inducer	basal / background activity in the absence of inducer [1]	rtTA activation by minocycline (Mc)	rtTA activation by tetracycline (Tc)
B1	particularly sensitive for minocycline; also recorded: very sensitive for minocycline	particularly sensitive for tetracycline; also recorded: very sensitive for tetracycline	no or low basal activity	low background activity	–	–
B2	–	–	no or low basal activity	–	particularly sensitive for minocycline	particularly sensitive for tetracycline
B3	–	–	no or low basal activity	–	particularly sensitive for minocycline	particularly sensitive for tetracycline
B4	–	–	no or low basal activity	–	–	–
B5	–	–	no or low basal activity	–	–	–

Source: patent USRE49583E1, “Inducible expression systems” (priority 2005, dated 2023)
